What all share (assay): BLI
On the technique in general: In BLI a coated tip is dipped into the sample, and binding shifts an interference pattern.

For assay [1], the target named is h11A4 x L15-1 hIgG4.
Assay [2] concerns the target h11A4 x L15-4 hIgG4.
In assay [3] the target is h11A4 x L15-5 hIgG4.
For assay [4], the target named is h11A4 x L15-3 hIgG4.
The target in assay [5] is h11A4 x L15-2 hIgG4.
Assay [6] deals with L15.
Assay [7] has as its target 17C7 x L15 hIgG4.

The Kd is the concentration at which binding is half-saturated. Low values mean higher affinity, high ones lower affinity.

B1: mouse CD16 (mCD16), his-tagged (receptor)
chain: ALPKAVVKLDPPWIQVLKEDMVTLMCEGTHNPGNSSTQWFHNGRSIRSQVQASYTFKATVNDSGEYRCQMEQTRLSDPVDLGVISDWLLLQTPQRVFLEGETITLRCHSWRNKLLNRISFFHNEKSVRYHHYKSNFSIPKANHSHSGDYYCKGSLGSTQHQSKPVTITVQDPATTSSISLVWYHT
For B1, the Kd in assay [1] was 163 nM; in assay [2], 211 nM; in assay [3], 197 nM; in assay [4], 218 nM; in assay [5], 119 nM; in assay [6], 126 nM. The same molecule came in with a dissociation constant (Kd) in assay [7] of 16.3 nM.

Source of the values: paper PMC12598741 (2025).
